# From patent US20190211098A1 (Genentech, published 2019)
# B1: PILRA G78 variant extracellular domain fused to murine IgG2a Fc (Fc fusion)
# chain: QPSGSTGSGPSYLYGVTQPKHLSASMGGSVEIPFSFYYPWELATAPDVRISWRRGHFHGQSFYSTRPPSIHKDYVNRLFLNWTEGQKSGFLRISNLQKQDQSVYFCRVELDTRSSGRQQWQSIEGTKLSITQAVTTTTQRPSSMTTTWRLSSTTTTTGLRVTQGKRRSDSWHISLET
# notes: Made in CHO cells, protein A/G purified; also called PILRA-mFc G78; PILRA-Fc G78; not shown: Fc region of murine IgG2a, C-terminal tag
# Experiments:
# NPDC1-His = target: T1, NPDC1-His (human, UniProt Q9NQX5 35-181, limits assumed); experiment: SPR, NPDC1-His binding to PILRA variant
# T1 construct: not shown: His tag
# T1 sequence: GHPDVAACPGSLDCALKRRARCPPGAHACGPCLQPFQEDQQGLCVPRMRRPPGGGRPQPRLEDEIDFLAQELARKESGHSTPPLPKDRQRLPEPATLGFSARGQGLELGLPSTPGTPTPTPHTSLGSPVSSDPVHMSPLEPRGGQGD
# [1] = target: T2, HSV-1 glycoprotein B, full length, expressed on transfected 293T cells (human herpes simplex virus type-1, UniProt P06437 31-904); experiment: flow cytometry, soluble PILRA-mFc 50 ug/ml on ligand-transfected 293T cells
# T2 construct: Construct cloned from EF157316 (strain KOSc); also called HSV-1 gB; human herpesvirus 1 strain KOSc glycoprotein B (EF157316)
# [2] = target: T3, Full length myc-DDK tagged PIANP, expressed on transfected 293T cells (human, UniProt Q8IYJ0 32-282); experiment: as above
# T3 construct: Bought construct (Origene Cat. No. RC207868); also called myc-PIANP; C12orf53 (human); not shown: myc-DDK tag of the Origene construct RC207868
# T3 sequence: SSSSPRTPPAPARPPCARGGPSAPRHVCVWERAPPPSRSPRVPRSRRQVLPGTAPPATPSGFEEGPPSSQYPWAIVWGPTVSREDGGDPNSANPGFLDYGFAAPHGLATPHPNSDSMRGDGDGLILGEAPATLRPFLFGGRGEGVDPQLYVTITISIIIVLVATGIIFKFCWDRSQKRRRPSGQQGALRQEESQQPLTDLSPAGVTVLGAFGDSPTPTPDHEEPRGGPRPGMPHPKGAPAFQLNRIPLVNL
binder,measurement,setting,value
B1,Kd,NPDC1-His,16.8 nM
same,kon,NPDC1-His,22000 M⁻¹ s⁻¹
same,binding result,[1],binds
same,binding result,[2],binds
